Values joined by “and” are separate entries in the source; they are usually repeats but may differ in a detail not shown here. Equal values may be shown once. Read-outs that look alike come from different tables or passages of the source.
Columns and labels:
HSALR mice = test: White blood cell differential count; format: in vivo, mouse
Description: (§1) Mouse handling and experimental procedures followed the European law regarding laboratory animal care and experimentation (2003/65/C.E.) and were approved by Conselleria de Agricultura, […] (reference no. A1539961490857). We used homozygous transgenic HSA^LR (line 20 b) mice,[90] which were kindly provided by Dr Thornton (Rochester, NY) and were housed and bred in our animal facility. […] The mice were randomly allocated to the different treatments as follows: in each cage, each mouse was ear-marked as it was taken out, and each mouse was then assigned to a different treatment. Animals were injected biweekly intravenously with 150 μL of 1× PBS vehicle (controls; […] Mice were sacrificed 45 days after the first injection and the tissues of interest were frozen in liquid nitrogen for the molecular and histological assays. All the mice used in this study ranged from 5 to 5.5 months of age and all were males. At 45 days post treatment, animals were sacrificed, and blood was collected by cardiac puncture exsanguination with K3-EDTA (Sarstedt, Nümbrecht, Germany). The samples were analyzed by Laboratorios Montoro Botella (Valencia, Spain).

Clcn1 exon 7a = test: Alternative splicing of Clcn1 exon 7a in muscle by RT-PCR (PSI, splice recovery); format: in vivo, mouse; settings: HSALR mice, individual mice; for Percentage spliced-in (PSI) Clcn1 Gast: 9.2 mg/kg (mean) i.v. x3, day 45, gastrocnemius; for Percentage spliced-in (PSI) Clcn1 Quads: 9.2 mg/kg (mean) i.v. x3, day 45, quadriceps
Procedure: Total RNA from murine gastrocnemius and quadriceps muscle was isolated using the miRNeasy Mini Kit (QIAGEN, Hilden, Germany) according to the manufacturer’s instructions. One microgram of RNA was digested with DNase I (Invitrogen, Carlsbad, CA) and reverse transcribed with SuperScript II (Invitrogen) using random hexanucleotides. For subsequent PCR reactions, 20 ng of cDNA was used with GoTaq polymerase (Promega). Specific primers were used to analyze the alternative splicing of Nfix, Atp2a1, and Clcn1 in mouse samples (both muscles). Gapdh levels established the endogenous reference levels using 0.2 ng of cDNA. PCR products were separated on a 2% agarose gel and quantified using ImageJ software (NIH, Bethesda, MD). PSR index was defined as value%SI minus X¯%DSI , divided by X¯%DSI minus X¯%HSI (SI, splicing inclusion of each sample; DSI, disease splicing inclusion; HSI, healthy splicing inclusion). Overall, PSR indicates the amount in both muscles analyzed. Primer sequences and exons analyzed are available in Cerro-Herreros et al.[20] In the case of off-targets, interleukins, and muscle regeneration marker Mstn-1, primers sequences are available in Table S5. We used 1 ng of mouse tissue cDNA as a template for multiplex qPCR using the QuantiFast Probe PCR Kit reagent. Commercial TaqMan probes (QIAGEN) were used for mouse (Mbnl1 and Mbnl2; FAM-labeled probes) and reference (GAPDH; MAX-labeled probe) genes. Results were normalized to Gapdh endogenous gene expression.
We used homozygous transgenic HSA^LR (line 20 b) mice,[90] which were kindly provided by Dr Thornton (Rochester, NY) and were housed and bred in our animal facility. Experimental groups were FVB as healthy control and HSA^LR treated with a scrambled ON (SC) and PBS as negative controls, and HSA^LR mice treated with all six experimental CPP-PMOs. The mice were randomly allocated to the different treatments as follows: in each cage, each mouse was ear-marked as it was taken out, and each mouse was then assigned to a different treatment. […] Mice were sacrificed 45 days after the first injection and the tissues of interest were frozen in liquid nitrogen for the molecular and histological assays. All the mice used in this study ranged from 5 to 5.5 months of age and all were males.

[1] = Bodyweight-normalized spleen weight and body weight; format: in vivo, mouse
Description: as §1, with “males.” for “males. At 45 days post treatment, animals were sacrificed, and blood was collected by cardiac puncture exsanguination with K3-EDTA (Sarstedt, Nümbrecht, Germany). The samples were analyzed by Laboratorios Montoro Botella (Valencia, Spain).”

DM1 cells = test: Cell proliferation assay (CellTiter 96 AQueous), cell growth inhibition after lipofection; format: cell-based, human
Procedure: Cells seeded at 10^5 cells/mL in 96-well plates were transfected 24 h later with antimiRs as described previously.[20] After 96 h, cell proliferation was measured using the CellTiter 96 AQueous Non-Radioactive Cell Proliferation Assay (Promega, Madison, WI). Absorbance levels were determined using an Infinite M200 PRO plate reader (Tecan, Männedorf, Switzerland) and the TC50 was calculated using non-linear least-squares regression.

[2] = HSALR mice, 9.2 mg/kg (mean) i.v. x3, day 45, blood, differential count, mean ± sd

## 6aKC-23b (antisense GGUAAUCCCUGGCAAUGUGAU; all phosphorodiamidate morpholino (PMO), T or U not given here; Pip6aKC peptide conjugated)
HSALR mice; mouse, in vivo, iv, 9.2 mg/kg
  Basophils: 0 ± 0%
  Eosinophils: 2,40 ± 1,341%
  Lymphocytes: 47,80 ± 12,133%
  Monocytes: 17,60 ± 7,537%
  Seg cells: 31,2 ± 13,142%
Clcn1 exon 7a
  Percentage spliced-in (PSI) Clcn1 Gast: 15.22% and 18.35% and 23.17% and 29.03% and 31.54%
  Percentage spliced-in (PSI) Clcn1 Quads: 24.44% and 30.63% and 35.11% and 37.69% and 28.33%
[1]; mouse, in vivo, iv, 9.2 mg/kg
  Weight: 39.84 ± 3,561 g
DM1 cells
  TC50: 1711.00 nM

## 6aKC-218 (antisense ACAUGGUUAGAUCAAGCACAA; all phosphorodiamidate morpholino (PMO), T or U not given here; Pip6aKC peptide conjugated)
HSALR mice; mouse, in vivo, iv, 9.2 mg/kg
  Basophils: 0 ± 0%
  Eosinophils: 0,60 ± 0,894%
  Lymphocytes: 57,20 ± 12,357%
  Monocytes: 21,40 ± 7,127%
  Seg cells: 20,4 ± 6,189%
Clcn1 exon 7a
  Percentage spliced-in (PSI) Clcn1 Gast: 28.37% and 38.26% and 18.26% and 24.01% and 28.56%
  Percentage spliced-in (PSI) Clcn1 Quads: 33.68% and 24.84% and 25.74% and 41.25% and 27.67%
[1]; mouse, in vivo, iv, 9.2 mg/kg
  Weight: 39,02 ± 1,460 g
DM1 cells
  TC50: 1809.00 nM

## 9b2-23b (antisense GGUAAUCCCUGGCAAUGUGAU; all phosphorodiamidate morpholino (PMO), T or U not given here; Pip9b2 peptide conjugated)
HSALR mice; mouse, in vivo, iv, 9.2 mg/kg
  Basophils: 0,2 ± 0,447%
  Eosinophils: 6,20 ± 2,588%
  Lymphocytes: 65,40 ± 6,189%
  Monocytes: 6,20 ± 2,683%
  Seg cells: 21 ± 3,391%
Clcn1 exon 7a
  Percentage spliced-in (PSI) Clcn1 Gast: 26.85% and 32.69% and 33.28% and 26.86% and 11.37%
  Percentage spliced-in (PSI) Clcn1 Quads: 0.61%
[1]; mouse, in vivo
  Weight (g) W.0: 28.7 g
  Weight (g) W.1: 29.2 g
  Weight (g) W.2: 28.6 g
  Weight (g) W.3: 29 g
  Weight (g) W.4: 29.1 g
  Weight (g) W.5: 29.4 g
  Weight (g) W.6: 29.1 g
[1]; mouse, in vivo, iv, 9.2 mg/kg
  Weight: 32,78 ± 4,285 g
DM1 cells
  TC50: 88.00 nM

## 9b2-218 (antisense ACAUGGUUAGAUCAAGCACAA; all phosphorodiamidate morpholino (PMO), T or U not given here; Pip9b2 peptide conjugated)
HSALR mice; mouse, in vivo, iv, 9.2 mg/kg
  Basophils: 0,2 ± 0,447%
  Eosinophils: 5,40 ± 2,073%
  Lymphocytes: 61,60 ± 4,159%
  Monocytes: 9,60 ± 3,209%
  Seg cells: 22,40 ± 3,647%
Clcn1 exon 7a
  Percentage spliced-in (PSI) Clcn1 Gast: 5.28% and 30.49% and 30.67% and 18.06% and 25.23%
  Percentage spliced-in (PSI) Clcn1 Quads: 4.09%
[1]; mouse, in vivo, iv, 9.2 mg/kg
  Weight: 30,76 ± 2,745 g
DM1 cells
  TC50: 42.00 nM

## 9b2KC-23b (antisense GGUAAUCCCUGGCAAUGUGAU; all phosphorodiamidate morpholino (PMO), T or U not given here; Pip9b2KC peptide conjugated)
HSALR mice; mouse, in vivo, iv, 9.2 mg/kg
  Basophils: 0 ± 0%
  Eosinophils: 9,50 ± 3,109%
  Lymphocytes: 60,25 ± 6,185%
  Monocytes: 5,75 ± 2,363%
  Seg cells: 23,5 ± 4,203%
Clcn1 exon 7a
  Percentage spliced-in (PSI) Clcn1 Gast: 18.78% and 26.33% and 30.11% and 15.58% and 38.58%
  Percentage spliced-in (PSI) Clcn1 Quads: 29.66% and 22.47% and 19.41% and 27.99% and 26.94%
[1]; mouse, in vivo, iv, 9.2 mg/kg
  Weight: 32,22 ± 5,551 g
DM1 cells
  TC50: 256.00 nM

## 9b2KC-218 (antisense ACAUGGUUAGAUCAAGCACAA; all phosphorodiamidate morpholino (PMO), T or U not given here; Pip9b2KC peptide conjugated)
HSALR mice; mouse, in vivo, iv, 9.2 mg/kg
  Basophils: 0 ± 0%
  Eosinophils: 7,20 ± 2,28%
  Lymphocytes: 59,60 ± 3,130%
  Monocytes: 6,40 ± 2,074%
  Seg cells: 25,8 ± 4,324%
Clcn1 exon 7a
  Percentage spliced-in (PSI) Clcn1 Gast: 32.73% and 22.25% and 31.59% and 22.57% and 29.41%
  Percentage spliced-in (PSI) Clcn1 Quads: 2.19% and 27.06% and 25.84% and 30.53% and 22.73%
[1]; mouse, in vivo, iv, 9.2 mg/kg
  Weight: 31,28 ± 4,11 g
DM1 cells
  TC50: 88.26 nM

## TCTTACCTCAGTTACAATTTA-Pip9b2 [Scramble, reference compound]
HSALR mice; [2]
  Basophils: 0 ± 0%
  Eosinophils: 2 ± 0,707%
  Lymphocytes: 60 ± 14,543%
  Monocytes: 11,60 ± 7,829%
  Seg cells: 25,8 ± 8,349%
  Stab cells: 0,60 ± 0,548%
Clcn1 exon 7a
  Percentage spliced-in (PSI) Clcn1 Gast: 12.37% and 14.67% and 42.81% and 26.86% and 36.37%
  Percentage spliced-in (PSI) Clcn1 Quads: 28.91% and 16.71% and 28.33% and 34.05% and 38.65%
[1]; HSALR mice, 9.2 mg/kg (mean) i.v. x3, day 45, bodyweight-normalized, mean ± sd, n = 5
  Spleen weight ratio: 0,0029 ± 0,0005
[1]; HSALR mice, 9.2 mg/kg (mean) i.v. x3, body weight, mean ± sd, n = 5
  Weight: 37,36 ± 2,928 g
DM1 cells; toxic concentration 50, DM1 cells transfected 24 h after seeding, read after 96 h, absorbance, non-linear least-squares regression
  TC50: 217.00 nM

From PMC10514136, “Peptide-conjugated antimiRs improve myotonic dystrophy type 1 phenotypes by promoting endogenous MBNL1 expression” (Molecular Therapy. Nucleic Acids, 2023)
